Test results: US20250043001A1 (Xencor, published 2025)

Biological target: T1, STEAP1 (UniProt Q9UHE8 1-339, limits assumed)
T1 construct: whole, on cells; also called Six-Transmembrane Epithelial Antigen of the Prostate 1
Experiment: cell binding (MFI) on LOX-IMVI cells expressing STEAP1
Source text: STEAP1 x CD28 bsAbs were engineered in 2+1 formats (mAb-scFv or Fab₂-scFv-Fc) to investigate the effects of bivalent binding to STEAP1 antigen compared with monovalent binding of a STEAP1 x CD28 bsAb in the 1+1 Fab-scFv format. LOX-IMVI cells (which express both STEAP1 at—8000 antigens/cell as well as an aCD3-scFv in order to provide Signal 1) were mixed with purified T cells at a 1:1 E:T ratio. As depicted in FIG. 36, XENP47235 in the […] format reaches a higher level of binding as measured by the MFI, indicating a higher antigen binding capacity and potentially higher efficacy. […] Each format may be advantageous in different contexts.

binding result: binds
B1: XENP47241 (bispecific antibody)
heavy 1: QVQVQESGPGLVKPSQTLSLTCTVSGYSITSDYSWNWIRQPPGKKLEWIGYIGTSGSTVYNPSLKSRVTISRDTSKNQFSLKLSSVTAADTAVYYCARERNYDYELYYYAMDYWGQGTLVTVSSASTKGPSVFPLAPSSKSTSGGTAALGCLVKDYFPEPVTVSWNSGALTSGVHTFPAVLQSSGLYSLSSVVTVPSSSLGTQTYICNVNHKPSDTKVDKKVEPKSCDKTHTCPPCPAPPVAGPSVFLFPPKPKDTLMISRTPEVTCVVVDVKHEDPEVKFNWYVDGVEVHNAKTKPREEEYNSTYRVVSVLTVLHQDWLNGKEYKCKVSNKALPAPIEKTISKAKGQPREPQVYTLPPSREEMTKNQVSLTCDVSGFYPSDIAVEWESDGQPENNYKTTPPVLDSDGSFFLYSKLTVDKSRWEQGDVFSCSVLHEALHSHYTQKSLSLSPGK
heavy 2: not shown
light 1: not shown
light 2: not shown
notes: also called STEAP1 x CD28 bsAb in the 2+1 mAb-scFv format
